Results from publication doi:10.1101/2021.03.10.434834 (bioRxiv, 2021).

B1: REGN10985 Fab (Fab, V domains shown)
VH: EVQLVESGGGLVQPGRSLRLSCAASGFTFDDYAMHWVRQAPGKGLEWVSGISWNRGSIGYADSVKGRFTISRDNAKNSLYLQMSSLRAEDTALYYCAKDGERWDSVVVPSARNGMDVWGQGTTVTVSS
VL: QSVLTQPPSVSGAPGQRVTISCTGSSSNIGAGYDVHWYQQLPGTAPKLLIYGNSNRPSGVPDRFSGSKSGTSASLAITGLQAEDEADYYCQSYDSSLSGSYVFGTGTKVTVL
B2: REGN10989 Fab (Fab, V domains shown)
VH: QVQLVQSGAEVKKPGASVKVSCKASGYIFTGYYMHWVRQAPGQGLEWMGWINPNSGGANYAQKFQGRVTLTRDTSITTVYMELSRLRFDDTAVYYCARGSRYDWNQNNWFDPWGQGTLVTVSS
VL: QSALTQPASVSGSPGQSITISCTGTSSDVGTYNYVSWYQQHPGKAPKLMIFDVSNRPSGVSDRFSGSKSGNTASLTISGLQAEDEADYYCSSFTTSSTVVFGGGTKLTVL

Biological target: SARS-CoV-2 spike protein receptor binding domain (SARS-CoV-2, UniProt P0DTC2)
Experiment: cryo-EM structure

Binder	binding result
B1	binds
B2	binds
